# Reference: US20060239990
# B1: mouse PRMT2 (untagged; endogenous in NIH3T3 cells, MEFs, GT1-7 cells and VSMC, or expressed from mouse PRMT2 cDNA in HEK293 cells) (protein)
# chain: MEAPGEGPCSESQVIPVLEEDPVDYGCEMQLLQDGAQLQLQLQPEEFVAIADYTATDETQLSFLRGEKILILRQTTADWWWGERAGCCGYIPANHLGKQLEEYDPEDTWQDEEYFDSYGTLKLHLEMLADQPRTTKYHSVILQNKESLKDKVILDVGCGTGIISLFCAHHARPKAVYAVEASDMAQHTSQLVLQNGFADTITVFQQKVEDVVLPEKVDVLVSEWMGTCLLFEFMIESILYARDTWLKGDGIIWPTTAALHLVPCSAEKDYHSKVLFWDNAYEFNLSALKSLAIKEFFSRPKSNHILKPEDCLSEPCTILQLDMRTVQVPDLETMRGELRFDIQKAGTLHGFTAWFSVYFQSLEEGQPQQVVSTGPLHPTTHWKQTLFMMDDPVPVHTGDVVHGFCCVTKKSGMEKAHVCLSELGCHVRTRSHVSTELETGSFRSGGDS
# B2: mouse PRMT2-Flag (FLAG-tagged full-length PRMT-2) (protein)
# chain: B1 chain
# Legend:
# [1] = target: GST-Stat3 fusion protein, P42227
# [2] = target: GST-Stat3 Arg31→Ala31 [GST: P08515]
# [3] = target: mouse STAT3 (endogenous in GT1-7 cells and VSMC, or expressed from mouse STAT3 pcDNA3 in HEK293 cells), P42227
# mouse STAT3 (endogenous in GT1-7 cells and VSMC, or expressed from mouse STAT3 pcDNA3 in HEK293 cells), P42227, sequence (P42227 2-770): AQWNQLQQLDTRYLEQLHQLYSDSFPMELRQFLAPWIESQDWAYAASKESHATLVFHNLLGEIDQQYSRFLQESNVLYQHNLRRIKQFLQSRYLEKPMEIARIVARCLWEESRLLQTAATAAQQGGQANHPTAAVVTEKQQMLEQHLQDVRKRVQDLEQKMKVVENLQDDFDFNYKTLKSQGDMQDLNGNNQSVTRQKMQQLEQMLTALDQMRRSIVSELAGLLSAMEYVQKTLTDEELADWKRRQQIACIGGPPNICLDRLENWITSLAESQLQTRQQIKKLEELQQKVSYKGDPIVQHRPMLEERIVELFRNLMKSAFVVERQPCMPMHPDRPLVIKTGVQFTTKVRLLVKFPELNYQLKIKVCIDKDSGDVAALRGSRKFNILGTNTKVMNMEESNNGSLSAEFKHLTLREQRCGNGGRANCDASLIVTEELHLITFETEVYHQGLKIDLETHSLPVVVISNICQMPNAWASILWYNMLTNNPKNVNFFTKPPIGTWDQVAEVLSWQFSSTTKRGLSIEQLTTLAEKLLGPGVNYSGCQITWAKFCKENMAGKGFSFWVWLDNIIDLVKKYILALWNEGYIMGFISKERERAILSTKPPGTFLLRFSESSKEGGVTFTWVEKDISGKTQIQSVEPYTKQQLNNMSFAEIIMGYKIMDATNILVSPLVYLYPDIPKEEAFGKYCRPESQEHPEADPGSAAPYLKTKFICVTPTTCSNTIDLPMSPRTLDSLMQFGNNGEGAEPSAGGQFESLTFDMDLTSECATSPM
# GST-Stat3 fusion protein, P42227, sequence (P42227 whole entry, the tested form may be a part): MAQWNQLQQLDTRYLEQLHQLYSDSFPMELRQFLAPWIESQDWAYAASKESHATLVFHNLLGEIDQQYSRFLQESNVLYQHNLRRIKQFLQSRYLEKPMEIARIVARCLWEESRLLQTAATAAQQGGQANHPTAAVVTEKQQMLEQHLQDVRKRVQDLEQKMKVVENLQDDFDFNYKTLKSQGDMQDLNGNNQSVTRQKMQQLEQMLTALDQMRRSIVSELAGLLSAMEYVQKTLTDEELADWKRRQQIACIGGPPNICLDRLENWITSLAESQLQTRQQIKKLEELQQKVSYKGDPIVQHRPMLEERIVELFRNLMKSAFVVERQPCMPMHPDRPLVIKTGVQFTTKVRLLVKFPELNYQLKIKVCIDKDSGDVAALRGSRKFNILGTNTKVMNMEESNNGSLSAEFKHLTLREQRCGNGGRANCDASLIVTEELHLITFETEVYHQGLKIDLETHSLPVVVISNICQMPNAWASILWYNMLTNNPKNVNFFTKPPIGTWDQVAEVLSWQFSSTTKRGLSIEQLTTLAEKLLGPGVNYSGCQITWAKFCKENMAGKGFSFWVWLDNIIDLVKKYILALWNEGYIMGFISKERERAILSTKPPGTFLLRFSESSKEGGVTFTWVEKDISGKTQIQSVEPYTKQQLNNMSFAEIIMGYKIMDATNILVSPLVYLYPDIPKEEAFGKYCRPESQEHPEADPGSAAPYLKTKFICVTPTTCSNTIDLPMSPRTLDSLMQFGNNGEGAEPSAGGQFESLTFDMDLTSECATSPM
# GST-Stat3 Arg31→Ala31 [GST: P08515], sequence (P08515 whole entry, looked up): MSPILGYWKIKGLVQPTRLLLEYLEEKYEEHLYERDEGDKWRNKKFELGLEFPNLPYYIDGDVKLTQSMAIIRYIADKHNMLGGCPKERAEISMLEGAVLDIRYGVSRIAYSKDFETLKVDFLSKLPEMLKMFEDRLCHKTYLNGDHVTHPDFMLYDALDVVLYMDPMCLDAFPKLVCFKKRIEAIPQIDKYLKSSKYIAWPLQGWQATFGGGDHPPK
protein,measurement,setting,value
B1,"in vitro methylation with [3H]-AdoMet, MEF extracts as the enzyme source",[1],"Cell extracts from wild-type MEFs were also capable of methylating GST-Stat3, whereas cell extracts from PRMT2^-/- cells abolished Stat3 methylation (FIG. 20B, lanes 2 and 4)"
same,"in vitro methylation with [3H]-AdoMet, MEF extracts as the enzyme source",[2],"This mutation resulted in substantially no methylation of Stat3 (FIG. 20B, lane 3)"
same,"leptin-induced Stat3 methylation in VSMC (anti-Stat3 immunoprecipitation, immunoblot with α-metR antibody)",[3],"leptin (100 nM) evoked a transient methylation of Stat3 at 10 min in wild-type VSMC (FIG. 22D, lane 2-5), whereas increased Stat3 methylation was not observed in PRMT2^-/- cells (FIG. 22D, lane 6-9)"
B2,in vitro methylation with [3H]-AdoMet,[1],Flag fusion protein from the cells transfected wild-type PRMT2-Flag cDNA could methylate GST-Stat3
